Test results reported in the supplement of paper PMC5998384.

Key:
HeLa Kyoto [1] = test: solubility in G1/S (NP-40 vs SDS abundance) (log2 ratio); higher = more soluble; settings: cell cycle stage: G1/S
HeLa Kyoto [2] = test: melting temperature (median over replicates), in situ; higher = more thermally stable
HeLa Kyoto [3] = test: solubility change mitosis vs G1/S (difference of NP-40 vs SDS log2 ratios) (log2 ratio difference); higher = more soluble in mitosis
HeLa Kyoto [4] = test: thermal stability score vs G1/S (z-score of summed log2 fold changes over temperatures); higher = more thermally stable than in G1/S
[5] = cell cycle stage: early G1 (4.5 h after nocodazole release)
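Wherever melting temperature (median over replicates), in situ is given: HeLa Kyoto cells synchronized by double thymidine or nocodazole block, proteins quantified by TMT10plex mass spectrometry, three independent biological replicates.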
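Wherever solubility change mitosis vs G1/S (difference of NP-40 vs SDS log2 ratios) is given: synchronized HeLa Kyoto cells (double thymidine block for G1/S, nocodazole release for mitosis), protein amounts in NP-40 versus SDS lysates quantified by mass spectrometry, three biological replicates.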
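Wherever solubility in G1/S (NP-40 vs SDS abundance) is given: HeLa Kyoto cells arrested at G1/S by double thymidine block, proteins quantified by TMT10plex mass spectrometry in mild NP-40 versus SDS extracts, three biological replicates.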
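Wherever thermal stability score vs G1/S (z-score of summed log2 fold changes over temperatures) is given: synchronized HeLa Kyoto cells, proteins quantified by TMT10plex mass spectrometry, three biological replicates, mitosis taken 0.5 h after nocodazole release, G1/S directly after double thymidine block.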

COL12A1, sequence (chain, as listed by the source): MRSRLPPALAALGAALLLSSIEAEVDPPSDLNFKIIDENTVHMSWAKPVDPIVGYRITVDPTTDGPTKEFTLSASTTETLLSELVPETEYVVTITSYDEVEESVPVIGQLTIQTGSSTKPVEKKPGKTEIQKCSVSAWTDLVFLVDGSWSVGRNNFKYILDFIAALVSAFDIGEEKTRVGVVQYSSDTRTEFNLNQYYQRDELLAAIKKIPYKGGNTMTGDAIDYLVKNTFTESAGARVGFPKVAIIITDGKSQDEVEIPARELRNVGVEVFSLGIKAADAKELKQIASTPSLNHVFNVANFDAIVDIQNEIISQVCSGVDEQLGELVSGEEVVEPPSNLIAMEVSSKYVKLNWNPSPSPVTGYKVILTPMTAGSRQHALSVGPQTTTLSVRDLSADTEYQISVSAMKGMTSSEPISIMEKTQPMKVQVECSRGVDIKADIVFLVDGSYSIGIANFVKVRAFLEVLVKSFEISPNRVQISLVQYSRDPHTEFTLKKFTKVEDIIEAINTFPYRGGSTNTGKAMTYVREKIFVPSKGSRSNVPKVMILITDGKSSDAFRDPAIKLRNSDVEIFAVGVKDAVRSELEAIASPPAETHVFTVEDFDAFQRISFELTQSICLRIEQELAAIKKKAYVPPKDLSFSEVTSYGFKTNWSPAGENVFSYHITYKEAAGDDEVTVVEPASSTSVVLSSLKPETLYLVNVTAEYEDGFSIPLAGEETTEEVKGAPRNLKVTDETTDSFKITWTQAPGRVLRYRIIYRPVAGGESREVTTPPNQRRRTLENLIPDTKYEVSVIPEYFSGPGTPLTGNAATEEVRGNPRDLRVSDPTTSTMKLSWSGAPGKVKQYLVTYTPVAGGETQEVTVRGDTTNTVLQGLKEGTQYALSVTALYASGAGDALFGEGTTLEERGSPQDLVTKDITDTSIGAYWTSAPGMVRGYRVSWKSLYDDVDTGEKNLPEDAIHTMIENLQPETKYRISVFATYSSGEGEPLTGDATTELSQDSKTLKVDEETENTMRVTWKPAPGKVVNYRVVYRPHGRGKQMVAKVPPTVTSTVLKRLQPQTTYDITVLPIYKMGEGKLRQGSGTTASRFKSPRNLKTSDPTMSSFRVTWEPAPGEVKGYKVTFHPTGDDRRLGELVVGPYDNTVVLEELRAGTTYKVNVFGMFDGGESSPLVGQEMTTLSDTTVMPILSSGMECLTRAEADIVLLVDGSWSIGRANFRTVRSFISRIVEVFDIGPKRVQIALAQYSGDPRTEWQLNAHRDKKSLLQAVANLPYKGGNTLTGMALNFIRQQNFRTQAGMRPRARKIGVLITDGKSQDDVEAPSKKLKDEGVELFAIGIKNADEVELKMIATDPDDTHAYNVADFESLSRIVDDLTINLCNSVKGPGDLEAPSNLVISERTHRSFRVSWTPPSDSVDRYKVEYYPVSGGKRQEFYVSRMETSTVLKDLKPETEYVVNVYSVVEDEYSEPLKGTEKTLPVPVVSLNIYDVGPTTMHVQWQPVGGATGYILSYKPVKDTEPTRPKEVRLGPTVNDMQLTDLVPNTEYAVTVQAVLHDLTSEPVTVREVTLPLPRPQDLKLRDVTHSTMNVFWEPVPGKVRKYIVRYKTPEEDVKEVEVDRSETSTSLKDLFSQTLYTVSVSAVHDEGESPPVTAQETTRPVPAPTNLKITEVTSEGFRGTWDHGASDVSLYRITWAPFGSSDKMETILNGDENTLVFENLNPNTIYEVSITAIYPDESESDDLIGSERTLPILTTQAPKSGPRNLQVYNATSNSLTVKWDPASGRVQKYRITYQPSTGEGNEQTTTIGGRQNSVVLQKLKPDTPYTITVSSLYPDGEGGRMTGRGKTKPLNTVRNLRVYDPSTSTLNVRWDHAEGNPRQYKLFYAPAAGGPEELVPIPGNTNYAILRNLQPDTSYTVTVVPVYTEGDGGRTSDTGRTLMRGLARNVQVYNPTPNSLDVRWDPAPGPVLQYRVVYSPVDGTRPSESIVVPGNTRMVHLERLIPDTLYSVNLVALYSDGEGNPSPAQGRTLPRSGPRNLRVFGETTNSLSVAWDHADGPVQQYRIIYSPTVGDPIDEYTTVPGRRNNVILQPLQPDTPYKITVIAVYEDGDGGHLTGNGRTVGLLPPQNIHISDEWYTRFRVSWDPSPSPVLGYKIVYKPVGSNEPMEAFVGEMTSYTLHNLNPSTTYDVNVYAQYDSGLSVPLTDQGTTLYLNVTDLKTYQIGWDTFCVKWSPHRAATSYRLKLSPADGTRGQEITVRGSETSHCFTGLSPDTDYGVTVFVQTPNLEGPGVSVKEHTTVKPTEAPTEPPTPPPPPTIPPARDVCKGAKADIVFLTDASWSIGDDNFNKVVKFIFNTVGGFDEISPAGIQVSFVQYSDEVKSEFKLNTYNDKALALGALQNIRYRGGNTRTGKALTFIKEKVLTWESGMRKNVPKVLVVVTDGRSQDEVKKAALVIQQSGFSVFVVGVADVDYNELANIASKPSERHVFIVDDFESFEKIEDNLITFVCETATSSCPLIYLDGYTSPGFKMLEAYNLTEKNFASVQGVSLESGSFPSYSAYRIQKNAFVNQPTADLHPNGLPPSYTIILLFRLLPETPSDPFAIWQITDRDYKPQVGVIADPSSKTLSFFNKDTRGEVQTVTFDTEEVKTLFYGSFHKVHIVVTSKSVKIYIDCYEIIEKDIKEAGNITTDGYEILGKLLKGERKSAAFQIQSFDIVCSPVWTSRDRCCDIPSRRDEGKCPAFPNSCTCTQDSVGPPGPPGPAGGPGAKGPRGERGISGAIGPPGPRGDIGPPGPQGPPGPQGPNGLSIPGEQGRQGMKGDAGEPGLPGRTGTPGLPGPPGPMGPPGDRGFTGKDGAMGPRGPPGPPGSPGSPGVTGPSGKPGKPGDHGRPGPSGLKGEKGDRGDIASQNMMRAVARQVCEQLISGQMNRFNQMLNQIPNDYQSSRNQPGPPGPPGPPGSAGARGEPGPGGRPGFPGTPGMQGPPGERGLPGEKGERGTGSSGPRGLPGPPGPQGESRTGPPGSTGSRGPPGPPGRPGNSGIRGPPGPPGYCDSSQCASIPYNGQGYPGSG

Row | Substance | solubility in G1/S (log2) (HeLa Kyoto [1]) | melting temperature (HeLa Kyoto [2]; cell cycle stage: G1/S) [°C] | melting temperature (HeLa Kyoto [2]; cell cycle stage: mitosis) [°C] | solubility change mitosis (log2) (HeLa Kyoto [3]) | thermal stability score (HeLa Kyoto [4]; [5]) | thermal stability score (HeLa Kyoto [4]; cell cycle stage: mitosis)
1 | MLQTLYDYFWWERLWLPVNLTWADLEDRDGRVYAKASDLYITLPLALLFLIVRYFFELYVATPLAALLNIKEKTRLRAPPNATLEHFYLTSGKQPKQVEVELLSRQSGLSGRQVERWFRRRRNQDRPSLLKKFREASWRFTFYLIAFIAGMAVIVDKPWFYDMKKVWEGYPIQSTIPSQYWYYMIELSFYWSLLFSIASDVKRKDFKEQIIHHVATIILISFSWFANYIRAGTLIMALHDSSDYLLESAKMFNYAGWKNTCNNIFIVFAIVFIITRLVILPFWILHCTLVYPLELYPAFFGYYFFNSMMGVLQLLHIFWAYLILRMAHKFITGKLVEDERSDREETESSEGEEAAAGGGAKSRPLANGHPILNNNHRKND [CERS2] | 0.0784 | 52.7 | 52.9 | -0.158 | -0.502 | -0.489
2 | MQRLLFPPLRALKGRQYLPLLAPRAAPRAQCDCIRRPLRPGQYSTISEVALQSGRGTVSLPSKAAERVVGRWLLVCSGTVAGAVILGGVTRLTESGLSMVDWHLIKEMKPPTSQEEWEAEFQRYQQFPEFKILNHDMTLTEFKFIWYMEYSHRMWGRLVGLVYILPAAYFWRKGWLSRGMKGRVLALCGLVCFQGLLGWYMVKSGLEEKSDSHDIPRVSQYRLAAHLGSALVLYCASLWTSLSLLLPPHKLPETHQLLQLRRFAHGTAGLVFLTALSGAFVAGLDAGLVYNSFPKMGESWIPEDLFTFSPILRNVFENPTMVQFDHRILGITSVTAITVLYFLSRRIPLPRRTKMAAVTLLALAYTQVGLGISTLLMYVPTPLAATHQSGSLALLTGALWLMNELRRVPK [COX15] | -0.208 | 56.5 | 57.9 | -0.0819 | -2.54 | -1.54
3 | COL12A1 | -0.1 | 53.8 | 54.9 | -0.124 | 4.88 | 5.9
4 | MRPLLLLALLGWLLLAEAKGDAKPEDNLLVLTVATKETEGFRRFKRSAQFFNYKIQALGLGEDWNVEKGTSAGGGQKVRLLKKALEKHADKEDLVILFADSYDVLFASGPRELLKKFRQARSQVVFSAEELIYPDRRLETKYPVVSDGKRFLGSGGFIGYAPNLSKLVAEWEGQDSDSDQLFYTKIFLDPEKREQINITLDHRCRIFQNLDGALDEVVLKFEMGHVRARNLAYDTLPVLIHGNGPTKLQLNYLGNYIPRFWTFETGCTVCDEGLRSLKGIGDEALPTVLVGVFIEQPTPFVSLFFQRLLRLHYPQKHMRLFIHNHEQHHKAQVEEFLAQHGSEYQSVKLVGPEVRMANADARNMGADLCRQDRSCTYYFSVDADVALTEPNSLRLLIQQNKNVIAPLMTRHGRLWSNFWGALSADGYYARSEDYVDIVQGRRVGVWNVPYISNIYLIKGSALRGELQSSDLFHHSKLDPDMAFCANIRQQDVFMFLTNRHTLGHLLSLDSYRTTHLHNDLWEVFSNPEDWKEKYIHQNYTKALAGKLVETPCPDVYWFPIFTEVACDELVEEMEHFGQWSLGNNKDNRIQGGYENVPTIDIHMNQIGFEREWHKFLLEYIAPMTEKLYPGYYTRAQFDLAFVVRYKPDEQPSLMPHHDASTFTINIALNRVGVDYEGGGCRFLRYNCSIRAPRKGWTLMHPGRLTHYHEGLPTTRGTRYIAVSFVDP [PLOD1] | -0.0992 | 54.3 | 54.5 | -0.0758 | 3.69 | 3.91
5 | MFQFHAGSWESWCCCCLIPADRPWDRGQHWQLEMADTRSVHETRFEAAVKVIQSLPKNGSFQPTNEMMLKFYSFYKQATEGPCKLSRPGFWDPIGRYKWDAWSSLGDMTKEEAMIAYVEEMKKIIETMPMTEKVEELLRVIGPFYEIVEDKKSGRSSDITSVRLEKISKCLEDLGNVLTSTPNAKTVNGKAESSDSGAESEEEEAQEEVKGAEQSDNDKKMMKKSADHKNLEVIVTNGYDKDGFVQDIQNDIHASSSLNGRSTEEVKPIDENLGQTGKSAVCIHQDINDDHVEDVTGIQHLTSDSDSEVYCDSMEQFGQEESLDSFTSNNGPFQYYLGGHSSQPMENSGFREDIQVPPGNGNIGNMQVVAVEGKGEVKHGGEDGRNNSGAPHREKRGGETDEFSNVRRGRGHRMQHLSEGTKGRQVGSGGDGERWGSDRGSRGSLNEQIALVLMRLQEDMQNVLQRLQKLETLTALQAKSSTSTLQTAPQPTSQRPSWWPFEMSPGVLTFAIIWPFIAQWLVYLYYQRRRRKLN [ACBD5] | 0.0763 | 47.3 | 49.4 | -0.129 | 2.16 | 3.53
